# Test results reported in patent US20150232507A1 (ERA BIOTECH S A, published 2015).
# Residue numbers refer to the chain shown, from its start. Names may count otherwise.
# T1: N1^C: NrdJ1^C-[C-extein]linker-Trx-EFRSHHHHHH fusion protein
# T1 chain: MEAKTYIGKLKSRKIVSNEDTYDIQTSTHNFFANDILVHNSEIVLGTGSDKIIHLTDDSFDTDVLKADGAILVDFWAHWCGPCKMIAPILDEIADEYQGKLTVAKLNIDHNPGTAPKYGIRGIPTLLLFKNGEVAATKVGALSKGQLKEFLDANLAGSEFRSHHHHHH
# T2: G1^C: Gp41.1^C-[C-extein]linker-Trx-EFRSHHHHHH fusion protein
# T2 chain: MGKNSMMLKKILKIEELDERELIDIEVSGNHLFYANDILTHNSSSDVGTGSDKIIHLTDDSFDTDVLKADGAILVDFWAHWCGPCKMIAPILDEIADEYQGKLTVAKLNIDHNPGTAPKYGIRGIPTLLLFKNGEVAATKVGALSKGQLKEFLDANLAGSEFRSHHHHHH
# T3: G8^C: Gp41.8^C-[C-extein]linker-Trx-EFRSHHHHHH fusion protein
# T3 chain: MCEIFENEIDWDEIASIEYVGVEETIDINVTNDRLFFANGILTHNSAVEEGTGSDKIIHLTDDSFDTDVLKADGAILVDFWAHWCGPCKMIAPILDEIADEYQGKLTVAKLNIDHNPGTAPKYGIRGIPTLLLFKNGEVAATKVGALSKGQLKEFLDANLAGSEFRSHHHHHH
# T4: I1^C: IMPDH1^C-[C-extein]linker-Trx-EFRSHHHHHH fusion protein
# T4 chain: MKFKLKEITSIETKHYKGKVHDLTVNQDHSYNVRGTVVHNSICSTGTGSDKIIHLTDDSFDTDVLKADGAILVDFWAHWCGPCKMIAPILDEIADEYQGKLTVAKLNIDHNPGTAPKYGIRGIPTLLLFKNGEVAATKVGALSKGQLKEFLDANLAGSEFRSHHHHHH
# B1: N1^N: StreptagII-gpD-linker[N-extein]-NrdJ1^N-GGHHHHHH fusion protein (other)
# chain: MASWSHPQFEKASKETFTHYQPQGNSDPAHTATAPGGLSAKAPAMTPLMLDTSSRKLVAWDGTTDGAAVGILAVAADQTSTTLTFYKSGTFRYEDVLWPEAASDETKKRTAFAGTAISIVGSGTNPCCLVGSSEIITRNYGKTTIKEVVEIFDNDKNIQVLAFNTHTDNIEWAPIKAAQLTRPNAELVELEINTLHGVKTIRCTPDHPVYTKNRDYVRADELTDDDELVVAIGGHHHHHH
# B2: N1^N(C1A): StreptagII-gpD-linker[N-extein]-NrdJ1^N(C1A)-GGHHHHHH fusion protein (other)
# chain: B1 chain with C128A
# B3: G1^N: StreptagII-gpD-linker[N-extein]-Gp41.1^N-GGHHHHHH fusion protein (other)
# chain: MASWSHPQFEKASKETFTHYQPQGNSDPAHTATAPGGLSAKAPAMTPLMLDTSSRKLVAWDGTTDGAAVGILAVAADQTSTTLTFYKSGTFRYEDVLWPEAASDETKKRTAFAGTAISIVGSTRSGYCLDLKTQVQTPQGMKEISNIQVGDLVLSNTGYNEVLNVFPKSKKKSYKITLEDGKEIICSEEHLFPTQTGEMNISGGLKEGMCLYVKEGGHHHHHH
# B4: G1^N(C1A): StreptagII-gpD-linker[N-extein]-Gp41.1^N(C1A)-GGHHHHHH fusion protein (other)
# chain: B3 chain with C128A
# B5: G8^N: StreptagII-gpD-linker[N-extein]-Gp41.8^N-GGHHHHHH fusion protein (other)
# chain: MASWSHPQFEKASKETFTHYQPQGNSDPAHTATAPGGLSAKAPAMTPLMLDTSSRKLVAWDGTTDGAAVGILAVAADQTSTTLTFYKSGTFRYEDVLWPEAASDETKKRTAFAGTAISIVGSSQLNRCLSLDTMVVTNGKAIEIRDVKVGDWLESECGPVQVTEVLPIIKQPVFEIVLKSGKKIRVSANHKFPTKDGLKTINSGLKVGDFLRSRAKGGHHHHHH
# B6: G8^N(C1A): StreptagII-gpD-linker[N-extein]-Gp41.8^N(C1A)-GGHHHHHH fusion protein (other)
# chain: B5 chain with C128A
# B7: I1^N: StreptagII-gpD-linker[N-extein]-IMPDH1^N-GGHHHHHH fusion protein (other)
# chain: MASWSHPQFEKASKETFTHYQPQGNSDPAHTATAPGGLSAKAPAMTPLMLDTSSRKLVAWDGTTDGAAVGILAVAADQTSTTLTFYKSGTFRYEDVLWPEAASDETKKRTAFAGTAISIVGSGIGGGCFVPGTLVNTENGLKKIEEIKVGDKVFSHTGKLQEVVDTLIFDRDEEIISINGIDCTKNHEFYVIDKENANRVNEDNIHLFARWVHAEELDMKKHLLIELEGGHHHHHH
# B8: I1^N(C1A): StreptagII-gpD-linker[N-extein]-IMPDH1^N(C1A)-GGHHHHHH fusion protein (other)
# chain: B7 chain with C128A
# What was measured:
# Assay in all cases: cell-based or functional assay
# [1] = target: T1, N1^C: …
# [2] = target: T1, N1^C: …
# [3] = target: T1, N1^C: …
# [4] = target: T2, G1^C: …
# [5] = target: T2, G1^C: …
# [6] = target: T2, G1^C: …
# [7] = target: T3, G8^C: …
# [8] = target: T3, G8^C: …
# [9] = target: T3, G8^C: …
# [10] = target: T4, I1^C: …
# [11] = target: T4, I1^C: …
# [12] = target: T4, I1^C: …
binder,measurement,setting,value
B1,"splice product formation at 5 minutes, 25 °C",[1],~90%
same,"trans-splicing speed, fold faster than Npu DnaE, 25 °C",[1],9 fold
same,"trans-splicing first order rate constant k, 25 °C",[2],0.062 s⁻¹
same,"trans-splicing t1/2, 25 °C",[2],0.333 min
B2,"C-terminal cleavage k, 25 °C",[3],0.00027 s⁻¹
same,"C-terminal cleavage t1/2, 25 °C",[3],43 min
B3,"splice product formation at 5 minutes, 25 °C",[4],~90%
same,"trans-splicing activity in 4 M urea after 1 hour, relative to optimized conditions",[4],~50%
same,"trans-splicing activity, fold faster than Npu DnaE, 12 °C",[4],6 fold
same,"trans-splicing activity, fold faster than Npu DnaE, 25 °C",[4],15 fold
same,"trans-splicing activity, fold faster than Npu DnaE, 37 °C",[4],10 fold
same,"trans-splicing speed, fold faster than Npu DnaE, 25 °C",[4],31 fold
same,"trans-splicing first order rate constant k, 25 °C",[5],0.057 s⁻¹
same,"trans-splicing t1/2, 25 °C",[5],0.2 min
B4,"C-terminal cleavage k, 25 °C",[6],0.000595 s⁻¹
same,"C-terminal cleavage t1/2, 25 °C",[6],19.4 min
B5,"splice product formation at 5 minutes, 25 °C",[7],~90%
same,"trans-splicing speed, fold faster than Npu DnaE, 25 °C",[7],6 fold
same,"trans-splicing first order rate constant k, 25 °C",[8],0.017 s⁻¹
same,"trans-splicing t1/2, 25 °C",[8],0.667 min
B6,"C-terminal cleavage k, 25 °C",[9],9.5e-05 s⁻¹
same,"C-terminal cleavage t1/2, 25 °C",[9],122 min
B7,"splice product formation at 5 minutes, 25 °C",[10],~90%
same,"trans-splicing speed, fold faster than Npu DnaE, 25 °C",[10],7 fold
same,"trans-splicing first order rate constant k, 25 °C",[11],0.02 s⁻¹
same,"trans-splicing t1/2, 25 °C",[11],0.567 min
B8,"C-terminal cleavage k, 25 °C",[12],0.000365 s⁻¹
same,"C-terminal cleavage t1/2, 25 °C",[12],31.6 min
